Results from paper PMC7898697.

Experiments:
Test in all cases: BLI
[1] = target: triazole-linked ^triazole42Ub^me-ADPr (5), biotinylated (UniProt P0CG48)
[2] = target: natively linked ^Arg42Ub^ADPr, biotinylated (UniProt P0CG48)
[3] = target: triazole-linked ^triazole42Ub^ADPr (4), biotinylated (UniProt P0CG48)
[4] = target: unmodified ubiquitin, biotinylated (biotin-Ub) (UniProt P0CG48)
[5] = target: triazole-linked ^triazole42Ub^Pr (6), biotinylated (UniProt P0CG48)
[6] = target: triazole-linked ^triazole72Ub^ADPr, biotinylated (UniProt P0CG48)

| Substance | Kd [1] | Kd [2] | Kd [3] | Kd [4] | fold reduction of affinity against 4 and 5 [5] | Kd [6] | fold reduction of affinity against 4 and 5 [4] |
| --- | --- | --- | --- | --- | --- | --- | --- |
| glutathione S-transferase (GST)-tagged DupA-H67A (from UniProt Q5ZTK7 1-301) (enzyme) | 10.6 nM | 5.7 nM | 11.2 nM | 54.5 nM | – | – | – |
| DupA-H67A lacking the GST tag (from UniProt Q5ZTK7 1-301) (enzyme) | 1200 nM | – | 2200 nM | – | > 15 fold | 9300 nM | > 15 fold |
